The assay has as its target SFTSV glycoprotein Gc (SFTSV (Dabie bandavirus), strain JA1-2018). The assay is described as follows: cryo-EM structure.

Several values for one entry are separate records, joined by “and”; a condition that tells them apart may be missing. Identical values can stand only once.

Usually stoichiometry N stands for a count of units in the complex or per binding partner.

On to SFTSV glycoprotein Gc (natural protein), for which the stoichiometry N is 5 and 6.

The values are drawn from article PMC10564799.
